T1: BCMA (Homo sapiens (Human), UniProt Q02223 1-54, limits assumed)
T1 sequence: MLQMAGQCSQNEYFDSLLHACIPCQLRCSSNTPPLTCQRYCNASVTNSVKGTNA

B1: D-domain SEQ ID NO: 119 (designed binder)
chain: MGSWYEFGDRLSAIWERLAALGGSEAELAAFEKEIAAFESELQAYKGKGNPEVEYLRTHAAEIRTILQAYRHN
B2: D-domain SEQ ID NO: 125 (designed binder)
chain: MGSWYEFHYRLKAINDRLYALGGSEAELAAFEKEIAAFESELQAYKGKGNPEVEYLRYSAAMIRHKLQAYRHN
B3: D-domain SEQ ID NO: 126 (designed binder)
chain: MGSWTEFHQRLGAIHARLGALGGSEAELAAFEKEIAAFESELQAYKGKGNPEVEYLRFSAAFIRLKLQAYRHN
B4: D-domain SEQ ID NO: 124 (designed binder)
chain: MGSWNEFHHRLWAIFDRLGALGGSEAELAAFEKEIAAFESELQAYKGKGNPEVEVLRKMAAGIRGGLQAYRHN
B5: D-domain SEQ ID NO: 195 (designed binder)
chain: MGSWVEFWDRLGAIRDRLDALGGSEAELAAFEKEIAAFESELQAYKGKGNPEVEELRNTAAYIRTFLQAYRHN
B6: D-domain SEQ ID NO: 206 (designed binder)
chain: MGSWVEFWHRLGAIYDRLEALGGSEAELAAFEKEIAAFESELQAYKGKGNPEVEELRRTAALIRQTLQAYRHN
B7: D-domain SEQ ID NO: 202 (designed binder)
chain: MGSWSEFWDRLTAIRVRLDALGGSEAELAAFEKEIAAFESELQAYKGKGNPEVEKLRYTAAHIRKFLQAYRHN
B8: D-domain SEQ ID NO: 214 (designed binder)
chain: MGSWTEFWARLYAIEMRLFALGGSEAELAAFEKEIAAFESELQAYKGKGNPEVEHLRRVAALIREQLQAYRHN
B9: D-domain SEQ ID NO: 204 (designed binder)
chain: MGSWFEFWDRLAAIRDRLEALGGSEAELAAFEKEIAAFESELQAYKGKGNPEVEDLRYVAAKIRVRLQAYRHN
B10: D-domain SEQ ID NO: 197 (designed binder)
chain: MGSWSEFWVRLGAIRERLDALGGSEAELAAFEKEIAAFESELQAYKGKGNPEVEKLRYTAATIRRFLQAYRHN
notes: also called bc40
B11: D-domain SEQ ID NO: 209 (designed binder)
chain: MGSWEEFDNRLEAIFDRLEALGGSEAELAAFEKEIAAFESELQAYKGKGNPEVEELREFAATIRITLQAYRHN
B12: D-domain SEQ ID NO: 205 (designed binder)
chain: MGSWTEFWVRLNAIRDRLEALGGSEAELAAFEKEIAAFESELQAYKGKGNPEVEDLRHTAAIIRNYLQAYRHN
B13: D-domain SEQ ID NO: 207 (designed binder)
chain: MGSWVEFWNRLGAIYDRLEALGGSEAELAAFEKEIAAFESELQAYKGKGNPEVEKLRHTAAVIRLYLQAYRHN
B14: D-domain SEQ ID NO: 208 (designed binder)
chain: MGSWSEFWERLEAIYDRLYALGGSEAELAAFEKEIAAFESELQAYKGKGNPEVEELRRTAATIRSFLQAYRHN
B15: D-domain SEQ ID NO: 196 (designed binder)
chain: MGSWSEFWVRLGAIRDRLDALGGSEAELAAFEKEIAAFESELQAYKGKGNPEVEALRVTAAQIRHYLQAYRHN
B16: D-domain SEQ ID NO: 131 (designed binder)
chain: MGSWVEFHGRLAAIYVRLFALGGSEAELAAFEKEIAAFESELQAYKGKGNPEVESLRYHAAMIRRNLQAYRHN
B17: D-domain SEQ ID NO: 116 (designed binder)
chain: MGSWVEFDERLVAIWFRLHALGGSEAELAAFEKEIAAFESELQAYKGKGNPEVEALRARAAYIRIWLQAYRHN
B18: D-domain SEQ ID NO: 132 (designed binder)
chain: MGSWVEFDRRLVAIYIRLWALGGSEAELAAFEKEIAAFESELQAYKGKGNPEVEALRDDAALIRLLLQAYRHN
B19: D-domain SEQ ID NO: 117 (designed binder)
chain: MGSWSEFGQRLSAIWERLLALGGSEAELAAFEKEIAAFESELQAYKGKGNPEVEALRADAAFIRIWLQAYRHN
B20: D-domain SEQ ID NO: 133 (designed binder)
chain: MGSWVEFDRRLVAIYIRLWALGGSEAELAAFEKEIAAFESELQAYKGKGNPEVEKLRYDAATIRETLQAYRHN
B21: D-domain SEQ ID NO: 136 (designed binder)
chain: MGSWIEFDRRLIAIWIRLWALGGSEAELAAFEKEIAAFESELQAYKGKGNPEVESLRSDAADIRQKLQAYRHN
B22: D-domain SEQ ID NO: 137 (designed binder)
chain: MGSWVEFDRRLIAIWVRLWALGGSEAELAAFEKEIAAFESELQAYKGKGNPEVEFLRSDAAMIREHLQAYRHN
B23: D-domain SEQ ID NO: 134 (designed binder)
chain: MGSWLEFDRRLTAIYLRLWALGGSEAELAAFEKEIAAFESELQAYKGKGNPEVEALREDAAMIRDMLQAYRHN
B24: D-domain SEQ ID NO: 146 (designed binder)
chain: MGSWGEFNLRLVAIHVRLWALGGSEAELAAFEKEIAAFESELQAYKGKGNPEVEFLRSQAANIRAQLQAYRHN
B25: D-domain SEQ ID NO: 147 (designed binder)
chain: MGSWGEFSDRLEAINERLWALGGSEAELAAFEKEIAAFESELQAYKGKGNPEVEELRWQAAFIRANLQAYRHN
B26: D-domain SEQ ID NO: 140 (designed binder)
chain: MGSWVEFRYRLGAIYHRLWALGGSEAELAAFEKEIAAFESELQAYKGKGNPEVEVLRDRAATIRRLLQAYRHN
B27: D-domain SEQ ID NO: 128 (designed binder)
chain: MGSWVEFHARLDAIYTRLGALGGSEAELAAFEKEIAAFESELQAYKGKGNPEVEYLRVLAAHIRISLQAYRHN
B28: D-domain SEQ ID NO: 143 (designed binder)
chain: MGSWTEFYQRLEAINFRLWALGGSEAELAAFEKEIAAFESELQAYKGKGNPEVEVLRDKAALIRLMLQAYRHN
B29: D-domain SEQ ID NO: 135 (designed binder)
chain: MGSWIEFDRRLLAIHVRLWALGGSEAELAAFEKEIAAFESELQAYKGKGNPEVEVLRADAAKIRMELQAYRHN
B30: D-domain SEQ ID NO: 138 (designed binder)
chain: MGSWYEFHTRLIAIYVRLWALGGSEAELAAFEKEIAAFESELQAYKGKGNPEVEWLRGDAAKIRGYLQAYRHN
B31: D-domain SEQ ID NO: 118 (designed binder)
chain: MGSWYEFEDRLVAIWIRLDALGGSEAELAAFEKEIAAFESELQAYKGKGNPEVEELRYNAAFIRGALQAYRHN
B32: D-domain SEQ ID NO: 123 (designed binder)
chain: MGSWQEFYNRLEAIHMRLFALGGSEAELAAFEKEIAAFESELQAYKGKGNPEVEGLRSDAAPIRDVLQAYRHN
B33: D-domain SEQ ID NO: 129 (designed binder)
chain: MGSWVEFGTRLSAIYNRLWALGGSEAELAAFEKEIAAFESELQAYKGKGNPEVEDLRFEAAIIRIMLQAYRHN
B34: D-domain SEQ ID NO: 139 (designed binder)
chain: MGSWSEFSTRLSAIYVRLWALGGSEAELAAFEKEIAAFESELQAYKGKGNPEVEYLRNKAASIRKTLQAYRHN
B35: D-domain SEQ ID NO: 130 (designed binder)
chain: MGSWVEFTHRLDAIYIRLWALGGSEAELAAFEKEIAAFESELQAYKGKGNPEVEELRHEAAVIREELQAYRHN
B36: D-domain SEQ ID NO: 122 (designed binder)
chain: MGSWLEFHYRLHAIQFRLYALGGSEAELAAFEKEIAAFESELQAYKGKGNPEVETLRHIAALIRNQLQAYRHN
B37: D-domain SEQ ID NO: 115 (designed binder)
chain: MGSWNEFSGRLTAIKDRLAALGGSEAELAAFEKEIAAFESELQAYKGKGNPEVEELRFRAAVIRLWLQAYRHN
B38: D-domain SEQ ID NO: 127 (designed binder)
chain: MGSWFEFQYRLEAIFYRLLALGGSEAELAAFEKEIAAFESELQAYKGKGKPEVEELRVRAALIRHLLQAYRHN
B39: D-domain SEQ ID NO: 145 (designed binder)
chain: MGSWEEFYGRLSAIQDRLWALGGSEAELAAFEKEIAAFESELQAYKGKGNPEVEWLRMHAAVIRRALQAYRHN
B40: D-domain SEQ ID NO: 141 (designed binder)
chain: MGSWNEFRNRLGAIDSRLWALGGSEAELAAFEKEIAAFESELQAYKGKGNPEVETLRAHAAIIRSVLQAYRHN
B41: D-domain SEQ ID NO: 144 (designed binder)
chain: MGSWNEFYNRLHAINLRLWALGGSEAELAAFEKEIAAFESELQAYKGKGNPEVEVLREHAAIIRQALQAYRHN
B42: D-domain SEQ ID NO: 142 (designed binder)
chain: MGSWHEFRNRLGAIDSRLWALGGSEAELAAFEKEIAAFESELQAYKGKGNPEVETLRARAAMIRSVLQAYRHN

These results are taken from patent US20250026849A1 (ARCELLX, published 2025).

In this test the target is T1, BCMA. Briefly: ELISA, format not described. Further details: unit not given here.
As to B1, the ELISA_avg was 8.89.
B2 displayed an ELISA_avg of 6.04.
Then B3, with 8.87; and B4, with 3.88.
The molecule B5 yielded an ELISA_avg of 16.
Then B6, with 19.9.
Then B7, with 16.1; and B8, with 12.5; and B9, with 12.8.
The same measure for B10: 7.56; for B11: 3.93.
As for B12, the ELISA_avg was 12.5.
B13 returned an ELISA_avg of 14.6.
The same measure for B14: 18.8; for B15: 23.5; for B16: 4.
Then B17, with 8.96; and B18, with 8.93.
Then B19, with 14; and B20, with 8.
Regarding B21, the ELISA_avg is 9.45.
B22 showed an ELISA_avg of 5.77.
As to B23, the ELISA_avg amounted to 9.82.
Then B24, with 12.8; and B25, with 4.26.
Then B26, with 10.8.
Consider B27, for which the ELISA_avg came out at 3.8.
Then B28, with 6.96.
Then B29, with 13.7; and B30, with 4.06.
B31 yielded an ELISA_avg of 4.93.
Then B32, with 6.47.
B33 displayed an ELISA_avg of 15.4.
The same measure for B34: 5.35; for B35: 13.9.
The same measure for B36: 12.7.
The same measure for B37: 3.39; for B38: 17.3; for B39: 3.28.
For B40, the ELISA_avg came to 4.7.
Then B41, with 3.
Molecule B42 yielded an ELISA_avg of 3.49.
